For series [1], the system named is T1, AcsMt.
T1 construct: gene acs; recombinant, E. coli Rosetta Blue (DE3) placI; His-Trap purified
The series is described as follows: hydroxamate assay, A540. The series is classed as biochemical, Methanothermobacter thermautotrophicus. Conditions: acetate and MgATP saturating; 65 °C; apparent Km. An excerpt: hydroxamate assay, A540 on AcsMt

Series [2] has as its target T2, MacsMa (Methanosarcina acetivorans, UniProt Q8TLW1).
T2 construct: gene MA_2912; recombinant, E. coli Rosetta Blue (DE3) placI; His-Trap purified
The series is described as follows: inhibition of propionyl-adenylate synthetase activity. Format: biochemical. Conditions: read-out: % inhibition at 15 mM.

Substrate in series [3]: CCC(=O)O
The series is described as follows: purified protein. The settings on record: no CoA, ATP saturating, 55 °C, apparent Km.

Substrate in series [4]: CC(C)(COP(=O)(O)OP(=O)(O)OC[C@H]1O[C@@H](n2cnc3c(N)ncnc32)[C@H](O)[C@@H]1OP(=O)(O)O)[C@@H](O)C(=O)NCCC(=O)NCCS
Kind of series: purified protein. Conditions: 2-methylbutyrate and ATP saturating, pH 7.5, 55 °C, apparent Km.

Substrate in series [5]: Nc1ncnc2c1ncn2[C@@H]1O[C@H](COP(=O)(O)OP(=O)(O)OP(=O)(O)O)[C@@H](O)[C@H]1O
The series is described as follows: purified protein. Conditions: 2-methylbutyrate and CoA saturating, pH 7.5, 55 °C, apparent Km.

Substrate in series [6]: CC(C)(COP(=O)(O)OP(=O)(O)OC[C@H]1O[C@@H](n2cnc3c(N)ncnc32)[C@H](O)[C@@H]1OP(=O)(O)O)[C@@H](O)C(=O)NCCC(=O)NCCS
Kind of series: 2-methylbutyryl-CoA synthetase activity. Format: biochemical, Methanosarcina acetivorans. The settings on record: 2-methylbutyrate and ATP saturating, pH 7.5, 55 °C, apparent Km. An excerpt:
2-methylbutyryl-CoA synthetase activity on MacsMa

Where a chain is given by its changes, count along the chain named. Names and notes keep the numbering of the source.

As usually defined, the Km is the substrate concentration at which the rate is half of its maximum. Turning to `CC(C)(COP(=O)(O)OP(=O)(O)OC[C@H]1O[C@@H](n2cnc3c(N)ncnc32)[C@H](O)[C@@H]1O)[C@@H](O)C(=O)NCCC(=O)NCCS` [3′-dephospho CoA], in series [1], the Michaelis constant (Km) was 2160 ± 500 µM.

As a reminder, the inhibition is the change of the read-out against control, counted positive when it falls. On to `CC(C)(COP(=O)(O)OP(=O)(O)OC[C@H]1O[C@@H](n2cnc3c(N)ncnc32)[C@H](O)[C@@H]1OP(=O)(O)O)[C@@H](O)C(=O)NCCC(=O)NCCS` [CoA], for which the inhibition at 15000 µM in series [2] is ~40%.

B1: MacsMa (Methanosarcina acetivorans C2A) (protein)
chain: MTSLLSQFVSKTDFESYEDFQENFKILVPENFNFAYDVVDVYARDSPEKLAMIWCDDYGNEKIFTFKDLKYYSDKAANFFVKHGIGKGDYVMLTLKSRYDFWYCMLGLHKLGAIAVPATHMLKTRDIVYRIEKAGLKMIVCIAEDDVPEQVDEAHAECGDIPLKKAKVGGDVLEGWIDFRKELEESSPIFERPTGEVSTKNEDICLVYFSSGTAGFPKMVEHDNTYPLGHILTAKYWQNVEDDGLHYTVADSGWGKCVWGKLYGQWIAGCAVFVYDYDRFEAKNMLEKASKYGVTTFCAPPTIYRFLIKEDLSHYNFSTLKYAVVAGEPLNPEVFNRFLEFTGIKLMEGFGQTETVVTIATFPWMEPKPGSIGKPTPGYKIELMDRDGRLCEVGEEGEIVINTMEGKPVGLFVHYGKDPERTEETWHDGYYHTGDMAWMDEDGYLWFVGRADDIIKTSGYKVGPFEVESALIQHPAVLECAITGVPDPVRGQVIKATIVLTKDYTPSDSLKNELQDHVKNVTAPYKYPRIIEFVPELPKTISGKIRRVEIRDKDQSQ
The term kcat denotes the number of substrate molecules converted per active site and unit of time at saturation. As for B1, the Km turned out to be 29100 ± 300 µM in series [3], 4090 ± 450 µM in series [4] and 4210 ± 110 µM in series [5]. Besides, the kcat in series [3] worked out at 10.67 ± 1.34 s⁻¹; in series [4], 2.15 ± 0.1 s⁻¹.

B2: MacsMa (Methanosarcina acetivorans C2A; K464R) (protein)
chain: B1 chain with K461R
notes: recombinant, E. coli Rosetta Blue (DE3) placI; His-Trap purified
Regarding B2, in series [6], the Km was determined as 1380 ± 140 µM and the kcat turned out to be 0.46 ± 0.1 s⁻¹.

B3: MacsMa (Methanosarcina acetivorans C2A; G462A) (protein)
chain: B1 chain with G459A
notes: as for B2
With B3, in series [6], the Km worked out at 2090 ± 60 µM and the kcat turned out to be 0.41 ± 0.01 s⁻¹.

B4: MacsMa (Methanosarcina acetivorans C2A; K464A) (protein)
chain: B1 chain with K461A
notes: as for B2
Take B4: in series [6], the Km amounted to 2190 ± 180 µM and the kcat was 0.55 ± 0.03 s⁻¹.

B5: MacsMa (Methanosarcina acetivorans C2A; K522R) (protein)
chain: B1 chain with K519R
notes: as for B2
With B5, in series [6], the Km was determined as 7180 ± 290 µM and the kcat turned out to be 1.07 ± 0.02 s⁻¹.

These data come from article PMC10455477, “The Roles of Coenzyme A Binding Pocket Residues in Short and Medium Chain Acyl-CoA Synthetases” (Life, 2023).
